± gives the standard deviation of the averaged measurements.
Test: total protein half-life in vivo (active degradation + dilution); higher = more stable protein
[1] = E. coli NCM3722 delta-clpP delta-lon delta-hslV, growth: N-lim chemostat, doubling time 6 h
[2] = E. coli NCM3722 delta-clpP, growth: N-lim chemostat, doubling time 6 h
[3] = E. coli NCM3722 delta-hslV, growth: N-lim chemostat, doubling time 6 h
[4] = E. coli NCM3722 delta-lon, growth: N-lim chemostat, doubling time 6 h
[5] = E. coli NCM3722 delta-smpB, growth: N-lim chemostat, doubling time 6 h
[6] = wild type E. coli NCM3722, growth: C-lim chemostat, doubling time 3 h
[7] = wild type E. coli NCM3722, growth: C-lim chemostat, doubling time 6 h
[8] = wild type E. coli NCM3722, growth: C-lim chemostat, doubling time 12 h
[9] = wild type E. coli NCM3722, growth: N-lim chemostat, doubling time 6 h
[10] = wild type E. coli NCM3722, growth: N-lim chemostat, doubling time 12 h
[11] = wild type E. coli NCM3722, growth: P-lim chemostat, doubling time 6 h
[12] = wild type E. coli NCM3722, growth: P-lim chemostat, doubling time 12 h

Sequence: MFTFIKKVIKTGTATSSYPLEPIAVDKNFRGKPEQNPQQCIGCAACVNACPSNALTVETDLATGELAWEFNLGHCIFCGRCEEVCPTAAIKLSQEYELAVWKKEDFLQQSRFALCNCRVCNRPFAVQKEIDYAIALLKHNGDSRAENHRESFETCPECKRQKCLVPSDRIELTRHMKEAI
- total protein half-life in vivo [1]: 2.95 h

Sequence: MKNSKAILQVPGTMKIISAEIPVPKEDEVLIKVEYVGICGSDVHGFESGPFIPPKDPNQEIGLGHECAGTVVAVGSRVRKFKPGDRVNIEPGVPCGHCRYCLEGKYNICPDVDFMATQPNYRGALTHYLCHPESFTYKLPDNMDTMEGALVEPAAVGMHAAMLADVKPGKKIIILGAGCIGLMTLQACKCLGATEIAVVDVLEKRLAMAEQLGATVVINGAKEDTIARCQQFTEDMGADIVFETAGSAVTVKQAPYLVMRGGKIMIVGTVPGDSAINFLKINREVTIQTVFRYANRYPVTIEAISSGRFDVKSMVTHIYDYRDVQQAFEESVNNKRDIIKGVIKISD
- total protein half-life in vivo [1]: 4.54 h
- total protein half-life in vivo [2]: 4.02 h
- total protein half-life in vivo [3]: 2.93 h
- total protein half-life in vivo [4]: 3.28 h
- total protein half-life in vivo [5]: 3.59 ± 0.58 h
- total protein half-life in vivo [6]: 2.63 ± 0.11 h
- total protein half-life in vivo [7]: 4.65 ± 0.57 h
- total protein half-life in vivo [8]: 8.14 ± 1.7 h
- total protein half-life in vivo [9]: 3.39 ± 0.43 h
- total protein half-life in vivo [10]: 5.18 ± 0.57 h
- total protein half-life in vivo [11]: 4.95 ± 0.44 h
- total protein half-life in vivo [12]: 9.79 ± 0.17 h

Sequence: MEKYLHLLSRGDKIGLTLIRLSIAIVFMWIGLLKFVPYEADSITPFVANSPLMSFFYEHPEDYKQYLTHEGEYKPEARAWQTANNTYGFSNGLGVVEVIIALLVLANPVNRWLGLLGGLMAFTTPLVTLSFLITTPEAWVPALGDAHHGFPYLSGAGRLVLKDTLMLAGAVMIMADSAREILKQRSNESSSTLKTEY
- total protein half-life in vivo [5]: 5.11 h
- total protein half-life in vivo [8]: 12.5 h
- total protein half-life in vivo [10]: 6.8 h

Sequence: MIGRLLRGGFMTAIYAYLYIPIIILIVNSFNSSRFGINWQGFTTKWYSLLMNNDSLLQAAQHSLTMAVFSATFATLIGSLTAVALYRYRFRGKPFVSGMLFVVMMSPDIVMAISLLVLFMLLGIQLGFWSLLFSHITFCLPFVVVTVYSRLKGFDVRMLEAAKDLGASEFTILRKIILPLAMPAVAAGWVLSFTLSMDDVVVSSFVTGPSYEILPLKIYSMVKVGVSPEVNALATILLVLSLVMVIASQLIARDKTKGNTGDVK [P0AFK6]
- total protein half-life in vivo [1]: 5.93 h
- total protein half-life in vivo [2]: 6.54 h
- total protein half-life in vivo [3]: 5.12 h
- total protein half-life in vivo [4]: 5.66 h
- total protein half-life in vivo [5]: 5.65 ± 0.13 h
- total protein half-life in vivo [6]: 3.13 ± 0.76 h
- total protein half-life in vivo [8]: 14 h
- total protein half-life in vivo [9]: 6.23 ± 0.36 h
- total protein half-life in vivo [10]: 13.3 ± 0.85 h
- total protein half-life in vivo [11]: 6.269 ± 0.021 h
- total protein half-life in vivo [12]: 10.5 ± 2.2 h

Sequence: MAGESFILMGVSGSGKTLIGSKVAALLSAKFIDGDDLHPAKNIDKMSQGIPLSDEDRLPWLERLNDASYSLYKKNETGFIVCSSLKKQYRDILRKGSPHVHFLWLDGDYETILARMQRRAGHFMPVALLKSQFEALERPQADEQDIVRIDINHDIANVTEQCRQAVLAIRQNRICAKEGSASDQRCE
- total protein half-life in vivo [1]: 4.25 h
- total protein half-life in vivo [6]: 2.82 ± 0.78 h
- total protein half-life in vivo [7]: 2.8 ± 0.43 h
- total protein half-life in vivo [8]: 3.67 h
- total protein half-life in vivo [9]: 1.6 h

Sequence: MELIFLGTSAGVPTRTRNVTAILLNLQHPTQSGLWLFDCGEGTQHQLLHTAFNPGKLDKIFISHLHGDHLFGLPGLLCSRSMSGIIQPLTIYGPQGIREFVETALRISGSWTDYPLEIVEIGAGEILDDGLRKVTAYPLEHPLECYGYRIEEHDKPGALNAQALKAAGVPPGPLFQELKAGKTITLEDGRQINGADYLAAPVPGKALAIFGDTGPCDAALDLAKGVDVMVHEATLDITMEAKANSRGHSSTRQAATLAREAGVGKLIITHVSSRYDDKGCQHLLRECRSIFPATELANDFTVFNV [P0A8V0]
- total protein half-life in vivo [1]: 4.1 ± 0.62 h
- total protein half-life in vivo [2]: 5.44 ± 1 h
- total protein half-life in vivo [3]: 4.51 ± 0.3 h
- total protein half-life in vivo [4]: 5.43 ± 0.51 h
- total protein half-life in vivo [5]: 3.918 ± 0.011 h
- total protein half-life in vivo [6]: 3.01 ± 0.12 h
- total protein half-life in vivo [7]: 5.64 ± 0.69 h
- total protein half-life in vivo [8]: 10 ± 0.64 h
- total protein half-life in vivo [9]: 3.93 ± 0.28 h
- total protein half-life in vivo [10]: 7.42 ± 0.32 h
- total protein half-life in vivo [11]: 5.54 ± 1.4 h
- total protein half-life in vivo [12]: 11.3 ± 2.1 h

Sequence: MTQFNPVDHPHRRYNPLTGQWILVSPHRAKRPWQGAQETPAKQVLPAHDPDCFLCAGNVRVTGDKNPDYTGTYVFTNDFAALMSDTPDAPESHDPLMRCQSARGTSRVICFSPDHSKTLPELSVAALTEIVKTWQEQTAELGKTYPWVQVFENKGAAMGCSNPHPHGQIWANSFLPNEAEREDRLQKEYFAEQKSPMLVDYVQRELADGSRTVVETEHWLAVVPYWAAWPFETLLLPKAHVLRITDLTDAQRSDLALALKKLTSRYDNLFQCSFPYSMGWHGAPFNGEENQHWQLHAHFYPPLLRSATVRKFMVGYEMLAETQRDLTAEQAAERLRAVSDIHFRESGV
- total protein half-life in vivo [1]: 3.59 ± 0.68 h
- total protein half-life in vivo [2]: 3.9 ± 0.27 h
- total protein half-life in vivo [3]: 4.65 ± 1 h
- total protein half-life in vivo [4]: 5.17 ± 1 h
- total protein half-life in vivo [5]: 3.41 ± 0.41 h
- total protein half-life in vivo [6]: 3.38 ± 0.37 h
- total protein half-life in vivo [7]: 5.51 ± 0.28 h
- total protein half-life in vivo [8]: 12.5 ± 2.4 h
- total protein half-life in vivo [9]: 4.16 ± 0.59 h
- total protein half-life in vivo [10]: 6.05 ± 0.21 h
- total protein half-life in vivo [11]: 5.52 ± 0.24 h
- total protein half-life in vivo [12]: 11.7 ± 0.13 h

Sequence: MFAEYGVLNYWTYLVGAIFIVLVPGPNTLFVLKNSVSSGMKGGYLAACGVFIGDAVLMFLAWAGVATLIKTTPILFNIVRYLGAFYLLYLGSKILYATLKGKNSEAKSDEPQYGAIFKRALILSLTNPKAILFYVSFFVQFIDVNAPHTGISFFILAATLELVSFCYLSFLIISGAFVTQYIRTKKKLAKVGNSLIGLMFVGFAARLATLQS
- total protein half-life in vivo [3]: 4.19 ± 0.057 h
- total protein half-life in vivo [4]: 5.03 ± 0.45 h
- total protein half-life in vivo [6]: > 4 h
- total protein half-life in vivo [10]: 8.29 h
